From paper PMC6318282, “Completion of the cytosolic post-chorismate phenylalanine biosynthetic pathway in plants” (Nature Communications, 2019)

Key:
purified protein [1] = substrate: C=C(O[C@@H]1C=C(C(=O)O)C=C[C@H]1O)C(=O)O; assay: purified protein; format: biochemical, Petunia x hybrida; details: 20 mM Tris-HCl pH 8.0, 1 mM EDTA, 37 °C
purified protein [2] = substrate: O=C(O)C(=O)CC1(C(=O)O)C=CC(O)C=C1; assay: purified protein; format: biochemical, Petunia x hybrida; details: 20 mM Tris-HCl pH 8.0, 1 mM EDTA, 37 °C

| Protein | Km (purified protein [2]) | Vmax (purified protein [2]) | further results |
| --- | --- | --- | --- |
| PhCM1 (Petunia x hybrida) (protein) QASATSLGLGNKNRVDETESYTLDGIRHSLIRQEDSIIFSLVERAQYCYNAETYDPDVFAMDGFHGSLVEYIVRETEKLHATVGRYKSPDEHPFFPKVLPEPVLPPMQYPKVLHPIADSININVKIWEMYFENLLPRLVKEGDDGNYGSTAVCDTICVQALSKRIHYGKFVAEAKYRASPEVYNAAIRAQDRNGLMDLLTYPAVEEAIKRRVEIKTRTYGQELHINGPENGGDPVYKIKPSLVAELYGDWIMPLTKEVQVQYLLRRLD |  |  | Km (purified protein [1]): 174 ± 27 µM; Vmax (purified protein [1]): 45.7 µmol/min/mg |
| PhCM2 (Petunia x hybrida) (protein, coding region, N-terminal 6xHis tag (pET-28a), E. coli, Ni-NTA) MACGDYDDKLSLDLIRDSLIRQEDTIIFNLIERIKFPINSTLYKKPSSWFPDFTGSLFQYLFQETEALQSKVGRYLSPEENPFFPDNLPASIVPPSKCPPVLHPVAESININEKILDVYLNQLLPLFCTEADEGNYATTAACDIQLLQAISRRIHYGKFVAEVKFRDCSDEYTPLILAQQDRDALMKLLTFEVVEEMVKKRVAKKAMIFGQEVTLVDNAKEVKCKVDPLLVSRLYDEWIMPLTKHVQVEYLLRRLDQNKLTSI |  |  | Km (purified protein [1]; reaction volume 225 μl): 8.6 ± 1.2 µM; Vmax (purified protein [1]; reaction volume 225 μl): 114 µmol/min/mg |
| PhADT3L (Petunia x hybrida) (protein) AGAAAVNTGVVNTPASNNTAGHVGASRTDWQSSCAILASKVVSQQQDTEKSGGAGNITAVNGHKILNLDLLPVESNRAKPLTITDLSPAPMHGAQLRVAYQGVPGAYSEAAAGKAYPKCEAIPCDQFEVAFQAVELWIADRAVLPIENSLGGSIHRNYDLLLRHRLHIVGEVQLPVHHCLLALPGVRKEYLTRVISHPQALAQCELTLTKLGLNVAREAVDDTAGAAEYIAANNLRDTAAIASSRAAELYGLDILEQGIQDDLSNVTRFVMLAREPIIPRTDRPFKTSIVFAHDKGTSVLFKVLSAFAFRNISLTKIESRPHRNRPIRLVDDANVGTAKHFEYMFYVDFEASMADVRAQNALAEVQEFTSFLRVLGSYPMDMTPWSPSRDA | 358 ± 32 µM | 0.125 µmol/min/mg |  |
| PhADT3S (Petunia x hybrida) (protein, short isoform starting at second in-frame ATG (133 residues downstream of first Met), intact catalytic and ACT domains, about 33 kD, N-terminal 6xHis tag (pET-28a), E. coli, Ni-NTA) MHGAQLRVAYQGVPGAYSEAAAGKAYPKCEAIPCDQFEVAFQAVELWIADRAVLPIENSLGGSIHRNYDLLLRHRLHIVGEVQLPVHHCLLALPGVRKEYLTRVISHPQALAQCELTLTKLGLNVAREAVDDTAGAAEYIAANNLRDTAAIASSRAAELYGLDILEQGIQDDLSNVTRFVMLAREPIIPRTDRPFKTSIVFAHDKGTSVLFKVLSAFAFRNISLTKIESRPHRNRPIRLVDDANVGTAKHFEYMFYVDFEASMADVRAQNALAEVQEFTSFLRVLGSYPMDMTPWSPSRDA | 433 ± 73 µM | 0.113 µmol/min/mg |  |
